Our source for the pKd values is article PMC9482650, “Quantitative fragmentomics allow affinity mapping of interactomes” (Nature Communications, 2022).

Common to all, as to assay: holdup assay
Design in all cases: key: below the threshold = too weak to quantify, mostly under pKd 3.1 to 4
Holding throughout (settings): plain residues with an end cap or a label only (N-terminal biotin on a linker: ado-ado)

Assay [1] has as its target T1, DFNB31_1, Q9P202.
T1 sequence (Q9P202 135-233, limits assumed, looked up): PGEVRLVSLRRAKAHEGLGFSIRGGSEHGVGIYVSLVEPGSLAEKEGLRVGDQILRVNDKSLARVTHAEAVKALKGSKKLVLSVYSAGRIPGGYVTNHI

Assay [2] concerns the target T2, APBA1_1, Q02410.
T2 sequence (Q02410 651-752, limits assumed, looked up): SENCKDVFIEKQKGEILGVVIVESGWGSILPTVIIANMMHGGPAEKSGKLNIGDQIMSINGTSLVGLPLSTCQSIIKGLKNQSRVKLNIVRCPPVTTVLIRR

Assay [3] deals with T3, DFNB31_2, Q9P202.
T3 sequence (Q9P202 274-371, limits assumed, looked up): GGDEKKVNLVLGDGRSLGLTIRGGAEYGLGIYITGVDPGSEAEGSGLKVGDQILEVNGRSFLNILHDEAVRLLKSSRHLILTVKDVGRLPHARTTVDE

Assay [4] addresses T4, TIAM2, Q8IVF5.
T4 sequence (Q8IVF5 885-986, limits assumed, looked up): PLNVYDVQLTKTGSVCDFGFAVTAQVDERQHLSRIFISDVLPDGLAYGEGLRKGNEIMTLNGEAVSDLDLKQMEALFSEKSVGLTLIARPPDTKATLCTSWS

Assay [5] has as its target PARD3_3, Q8TEW0.
For assay [6], the target named is GRIP2_7, Q9C0E4.
Assay [7] deals with MAGI2_2, Q86UL8.
Assay [8] has as its target DLG1_2, Q12959.
The target in assay [9] is T5, CARD11, Q9BXL7.
T5 sequence (Q9BXL7 662-765, limits assumed, looked up): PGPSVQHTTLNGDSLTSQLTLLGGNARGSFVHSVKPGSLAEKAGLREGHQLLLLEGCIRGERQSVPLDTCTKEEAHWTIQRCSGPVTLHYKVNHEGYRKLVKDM

Assay [10] addresses PDLIM1, O00151.
Assay [11] concerns the target T6, LIN7A, O14910.
T6 sequence (O14910 103-200, limits assumed, looked up): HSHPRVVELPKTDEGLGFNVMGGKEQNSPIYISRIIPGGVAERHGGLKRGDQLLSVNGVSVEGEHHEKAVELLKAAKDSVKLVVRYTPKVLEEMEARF

The target in assay [12] is LDB3, O75112.
The target of assay [13] is T7, DFNB31_3, Q9P202.
T7 sequence (Q9P202 811-907, limits assumed, looked up): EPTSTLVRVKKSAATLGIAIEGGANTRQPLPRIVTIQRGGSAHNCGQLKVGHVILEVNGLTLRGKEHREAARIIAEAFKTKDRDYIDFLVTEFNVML

Assay [14] has as its target T8, HTRA3, P83110.
T8 sequence (P83110 354-453, limits assumed, looked up): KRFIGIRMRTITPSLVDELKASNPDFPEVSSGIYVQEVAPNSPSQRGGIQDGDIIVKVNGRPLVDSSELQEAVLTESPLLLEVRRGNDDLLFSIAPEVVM

Assay [15] concerns the target T9, PDZD7_3, Q9H5P4.
T9 sequence (Q9H5P4 857-944, limits assumed, looked up): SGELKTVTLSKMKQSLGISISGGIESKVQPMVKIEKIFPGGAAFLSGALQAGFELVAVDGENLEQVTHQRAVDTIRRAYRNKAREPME

Assay [16] concerns the target T10, PTPN13_1, Q12923.
T10 sequence (Q12923 1088-1188, limits assumed, looked up): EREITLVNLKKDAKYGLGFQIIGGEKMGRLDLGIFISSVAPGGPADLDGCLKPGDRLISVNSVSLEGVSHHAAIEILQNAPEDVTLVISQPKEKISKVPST

In assay [17] the target is FRMPD3, Q5JV73.
The target of assay [18] is T11, GRIP1_4, Q9Y3R0.
T11 sequence (Q9Y3R0 467-571, limits assumed, looked up): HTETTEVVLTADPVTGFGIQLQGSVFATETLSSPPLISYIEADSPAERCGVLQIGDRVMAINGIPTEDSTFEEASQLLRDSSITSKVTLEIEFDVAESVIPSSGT

Assay [19] deals with DLG4_2, P78352.
The target in assay [20] is T12, DVL3, Q92997.
T12 sequence (Q92997 244-331, limits assumed, looked up): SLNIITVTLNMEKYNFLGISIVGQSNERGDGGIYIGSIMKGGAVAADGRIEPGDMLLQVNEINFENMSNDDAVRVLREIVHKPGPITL

Assay [21] has as its target T13, SNTA1, Q13424.
T13 sequence (Q13424 82-180, limits assumed, looked up): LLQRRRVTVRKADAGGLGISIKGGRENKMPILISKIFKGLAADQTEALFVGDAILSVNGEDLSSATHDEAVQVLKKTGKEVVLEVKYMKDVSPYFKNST

Assay [22] has as its target T14, LIN7B, Q9HAP6.
T14 sequence (Q9HAP6 88-185, limits assumed, looked up): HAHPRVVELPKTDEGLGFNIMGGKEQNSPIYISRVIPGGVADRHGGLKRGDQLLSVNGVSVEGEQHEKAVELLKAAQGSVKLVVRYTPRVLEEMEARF

Assay [23] addresses SCRIB_1, Q14160.
In assay [24] the target is GRASP, Q7Z6J2.
Sequence of GRASP, Q7Z6J2 (Q7Z6J2 96-193): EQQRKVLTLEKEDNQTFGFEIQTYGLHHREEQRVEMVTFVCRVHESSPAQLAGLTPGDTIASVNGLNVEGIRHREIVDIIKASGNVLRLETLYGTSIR

Sequence of PDLIM1, O00151 (O00151 1-87): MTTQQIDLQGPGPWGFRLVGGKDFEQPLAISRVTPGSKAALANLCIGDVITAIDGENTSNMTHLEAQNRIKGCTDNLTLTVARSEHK
Sequence of DLG4_2, P78352 (P78352 155-259): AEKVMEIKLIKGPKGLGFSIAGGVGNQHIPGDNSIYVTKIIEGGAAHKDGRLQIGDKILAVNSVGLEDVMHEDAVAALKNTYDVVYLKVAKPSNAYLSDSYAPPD
Sequence of FRMPD3, Q5JV73 (Q5JV73 12-100): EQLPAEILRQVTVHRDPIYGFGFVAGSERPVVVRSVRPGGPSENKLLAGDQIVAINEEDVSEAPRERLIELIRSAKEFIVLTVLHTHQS
Sequence of DLG1_2, Q12959 (Q12959 314-412): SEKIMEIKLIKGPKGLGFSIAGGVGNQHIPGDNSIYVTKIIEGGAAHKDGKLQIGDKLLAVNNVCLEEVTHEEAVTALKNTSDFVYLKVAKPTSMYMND
Sequence of PARD3_3, Q8TEW0 (Q8TEW0 582-685): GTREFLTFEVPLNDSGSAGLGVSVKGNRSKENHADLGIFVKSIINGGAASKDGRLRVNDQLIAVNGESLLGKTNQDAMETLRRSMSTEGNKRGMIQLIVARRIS
Sequence of GRIP2_7, Q9C0E4 (Q9C0E4 934-1023): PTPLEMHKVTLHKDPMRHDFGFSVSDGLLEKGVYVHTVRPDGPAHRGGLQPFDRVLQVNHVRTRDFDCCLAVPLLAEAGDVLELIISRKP
Sequence of LDB3, O75112 (O75112 1-94): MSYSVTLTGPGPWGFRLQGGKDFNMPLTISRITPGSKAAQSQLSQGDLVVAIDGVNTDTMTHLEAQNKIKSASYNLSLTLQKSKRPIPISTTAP
Sequence of SCRIB_1, Q14160 (Q14160 718-814): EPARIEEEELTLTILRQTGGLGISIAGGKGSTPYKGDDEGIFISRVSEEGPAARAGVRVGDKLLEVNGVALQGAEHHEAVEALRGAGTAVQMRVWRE
Sequence of MAGI2_2, Q86UL8 (Q86UL8 410-522): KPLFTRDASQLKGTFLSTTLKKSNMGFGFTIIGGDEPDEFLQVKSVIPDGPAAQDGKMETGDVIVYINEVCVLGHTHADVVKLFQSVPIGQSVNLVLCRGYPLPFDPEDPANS

With PASAKGPLGV [CLDN19, Q8N6F1], the pKd result in assay [1], in [2], in assay [3], in assay [4], in assay [5] and in [6] was “below the threshold” in each case. Moreover, the pKd result in [7], in assay [8], in assay [9], in assay [10], in assay [11] and in assay [12] was “below the threshold” in each case. Moreover, the pKd entry in [13], in assay [14], in assay [15], in [16], in assay [17] and in [18] was “below the threshold” each time. For the same molecule, the pKd result in assay [19], in [20], in assay [21], in assay [22], in assay [23] and in assay [24] was “below the threshold” each time.
As to DSATVRTYSC [PPFIA1, Q13136], the pKd is 3.47 in [1]; “below the threshold” in [2]; “below the threshold” in assay [3]; 4.19 in assay [4]; “below the threshold” in assay [5]; 4.15 in assay [6]. The pKd entry in [7], in assay [8], in assay [9], in [10], in assay [11] and in assay [12] was “below the threshold” each time. The pKd was 3.51 in [13]; 4.65 in [14]; “below the threshold” in [15]; “below the threshold” in assay [16]; “below the threshold” in assay [17]; “below the threshold” in assay [18]. In addition, the negative logarithm of the Kd (pKd) result is “below the threshold” in assay [19]; “below the threshold” in assay [20]; “below the threshold” in assay [21]; 3.7 in assay [22]; “below the threshold” in assay [23]; 4.31 in assay [24].
Regarding PAPGQHTTQI [STK16, O75716], the pKd is 4.57 in assay [1]; “below the threshold” in assay [2]; “below the threshold” in assay [3]; 3.97 in [4]; “below the threshold” in assay [5]; “below the threshold” in assay [6]. For the same molecule, the pKd result in assay [7] is “below the threshold”; in assay [8], 3.73; in assay [9], “below the threshold”; in assay [10] it was “below the threshold”; in assay [11] it was “below the threshold”; in assay [12], “below the threshold”. Moreover, the pKd in [13] is 4.23; in assay [14], “below the threshold”; in [15], 5; in assay [16], “below the threshold”; in assay [17] it was “below the threshold”; in assay [18], “below the threshold”. The pKd in [19] is 3.87; in assay [20], “below the threshold”; in [21], “below the threshold”; in assay [22], 3.92; in assay [23], 3.84; in [24], 3.58.
As to QSPPNIYYKV [EFNB3, Q15768], the pKd is 3.55 in assay [1]; “below the threshold” in assay [2]; “below the threshold” in assay [3]; 4.01 in assay [4]; “below the threshold” in [5]; 4.41 in assay [6]. In addition, the pKd result in assay [7], in [8], in assay [9], in [10], in [11] and in assay [12] was “below the threshold” each time. In addition, the pKd was 4.1 in assay [13]; 3.53 in assay [14]; “below the threshold” in [15]; “below the threshold” in [16]; “below the threshold” in [17]; “below the threshold” in assay [18]. Besides, the negative-log Kd (pKd) in [19] was 3.54; in [20], “below the threshold”; in assay [21] it was “below the threshold”; in [22], “below the threshold”; in assay [23], “below the threshold”; in assay [24], 3.57.
